In PMC8204385 (Biophysical Journal, 2021):

B1: Human SHP-1 with an N-terminal 6x His tag (enzyme)
chain: not shown
B2: SLAM peptide (cytoplasmic tail of SLAM, 77 aa, singly phosphorylated) (peptide)
peptide: QLRRRGKTNHYQTTVEKKSLTIYAQVQKPGPLQKKLDSFPAQDPCTTIYVAATEPVPESVQETNSITVYASVTLPES
modifications: biotin on the N-terminus; phosphotyrosine in the ITSM (position 327 in the native sequence)
notes: cytoplasmic tail of SLAM, 77 aa; only the last tyrosine (327) is phosphorylated; source: synthetic peptide (Peptide Protein Research)

Tests used:
[1] = target: B2; experiment: cell-based or functional assay
[2] = target: B1; experiment: SPR; biotinylated peptide on streptavidin-coupled CM5 chip (25-100 RU), SHP-1 injected 45 s at 10 uL/min; Biacore T200; 37°C; 10 mM HEPES pH 7.4, 150 mM NaCl, 3 mM EDTA, 0.05% Tween 20, 1 mM dithiothreitol; constants from the fit of the extended MPDPDE model; details: both partners purified

Binder	ratio kcat(tethered)/kcat(solution) from the SPR assay (allosteric activation of SHP-1) [1] [fold]	Kd [2] [µM]	koff [2] [s⁻¹]	kon [2] [M⁻¹ s⁻¹]
B1	6.2			
B2		130	1.7	20000
